From patent US20110223107A1 (ALETHIA BIOTHERAPEUTICS, published 2011) come the findings set out here.

The target in experiment [1] is T1, monomeric recombinant KAAG1 (Homo sapiens (Human), UniProt Q9UBP8 1-84, limits assumed).
T1 construct: Analyte of the Biacore experiment
T1 sequence: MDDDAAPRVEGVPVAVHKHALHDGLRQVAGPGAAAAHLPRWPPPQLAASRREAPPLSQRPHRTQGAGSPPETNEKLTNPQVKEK
Kind of experiment: SPR (Biacore): antibody captured on immobilised anti-human Fc, monomeric recombinant KAAG1 injected, global 1:1 fit; average KD; humanized light + humanized heavy chain, 'HH'. The method, then:
(§1) More precise measurements were conducted using Surface Plasmon Resonance (SPR) in a Biacore instrument. Kinetic analysis was used to compare the affinity of the chimeric 3D3 with the h3D3 as well as with hybrid antibodies encompassing different permutations of the light and heavy chains (see FIG. 18B). Briefly, anti-human Fc was immobilized on the Biacore sensor chip and chimeric or h3D3 was captured on the chip. Different concentrations of monomeric recombinant KAAG1 were injected and the data were globally fitted to a simple 1:1 model to determine the kinetic parameters of the interaction.
(In SPR one partner is held on a chip, and binding of the other changes the refractive index at the surface.)

Experiment [2] has as its target T2, recombinant Fc-KAAG1 fusion protein (full-length KAAG1) (human, UniProt Q9UBP8 1-84, biotinylated with NHS-biotin (sites not given)).
T2 construct: also called recombinant human KAAG1; not shown: human Fc domain encoded by expression plasmid pYD5; vector-encoded residues between the Fc and the BamHI cloning site of pYD5
T2 sequence: T1 sequence
Kind of experiment: ELISA on recombinant Fc-KAAG1. The method, then: The 96-well master plate of monoclonal preparations contained different concentrations of purified anti-KAAG1 Fabs in each well. A second stock master plate was prepared by diluting the Fabs to a final concentration of 10 μg/ml from which all subsequent dilutions were performed for ELISA measurements. To carry out the binding of Fc-KAAG1 to the monoclonal preparations, the Fc-KAAG1 was biotinylated with NHS-biotin (Pierce, Rockford, Ill.) and 10 ng/well was coated in a streptavidin 96-well plate. One nanogram of each Fab monoclonal preparation was added to each well and incubated at room temperature for 30 minutes. Bound antibody was detected with HRP-conjugated mouse anti-kappa light chain antibody in the presence of TMB liquid substrate (Sigma-Aldrich Canada Ltd., Oakville, ON) and readings were conducted at 450 nm in microtiter plate reader.
Since an antibody harboring effector functions was required, the h3D3 was assembled as a human IgG₁. ELISA-based assays were performed to directly compare the ability of the h3D3 […]. The methods used to perform these tests were as described in Example 3 using recombinant Fc-KAAG1.

In experiment [3] the target is T1, monomeric recombinant KAAG1. In words: SPR (Biacore), antibody captured by anti-human Fc, 1:1 fit. How it is done: as §1
For experiment [4] the target is unchanged. Kind of experiment: SPR (Biacore): antibody captured on immobilised anti-human Fc, monomeric recombinant KAAG1 injected, global 1:1 fit; average KD; humanized light + chimeric heavy chain, 'HC'. The method, then:
as §1

For experiment [5] the target is unchanged. In words: SPR (Biacore): antibody captured on immobilised anti-human Fc, monomeric recombinant KAAG1 injected, global 1:1 fit; average KD; chimeric light + humanized heavy chain, 'CH'. How it is done:
as §1

B1: humanized 3D3 anti-KAAG1 antibody (human IgG1) (antibody, V domains shown)
VH: EVQLVQSGAEVKKPGASVKVSCKASGYIFTDYEIHWVRQAPGQGLEWMGVIDPETGNTAFNQKFKGRVTITADTSTSTAYMELSSLTSEDTAVYYCMGYSDYWGQGTLVTVSS
VL: DIVMTQSPDSLAVSLGERATINCKSSQSLLNSNFQKNFLAWYQQKPGQPPKLLIYFASTRESSVPDRFSGSGSGTDFTLTISSLQAEDVAVYYCQQHYSTPLTFGQGTKLEIKR
notes: The leader residues before them are left out; also called h3D3; HH
The term Kd denotes a measure of binding affinity in units of concentration. As a reminder, the EC50 (read off the curve) is the concentration that produces a half-maximal response. Broadly, the koff is a measure of how fast the partners let go of each other. The term kon denotes the second-order rate constant of association. Turning to B1, in experiment [1], the equilibrium dissociation constant (Kd) amounted to 439 pM. The concentration giving a half-maximal response (EC50 (read off the curve)) in experiment [2] is roughly 0.1 µg/mL. In addition, in experiment [3], the Ka is 2.28e+09 M⁻¹, the koff was determined as 0.00111 s⁻¹ and the kon was determined as 2.53e+06 M⁻¹ s⁻¹.

B2: 3D3 hybrid antibody: humanized light chain expressed with the chimeric heavy chain (antibody, V domains shown)
VH: EVQLQQSVAELVRPGASVTLSCKASGYIFTDYEIHWVKQTPVHGLEWIGVIDPETGNTAFNQKFKGKATLTADISSSTAYMELSSLTSEDSAVYYCMGYSDYWGQGTTLTVSS
VL: B1 VL
notes: also called HC
Take B2: the Kd in experiment [4] was determined as 309 pM. For the same molecule, in experiment [3], the Ka came to 3.24e+09 M⁻¹, the koff was determined as 0.00073 s⁻¹ and the kon is 2.36e+06 M⁻¹ s⁻¹.

B3: 3D3 hybrid antibody: chimeric light chain expressed with the humanized heavy chain (antibody, human IgG1, V domains shown)
VH: B1 VH
VL: DIVMTQSPSSLAVSIGQKVTMNCKSSQSLLNSNFQKNFLAWYQQKPGQSPKLLIYFASTRESSIPDRFIGSGSGTDFTLTISSVQAEDLADYFCQQHYSTPLTFGAGTKLELKA
B3: the Kd in experiment [5] was found to be 505 pM. In addition, in experiment [3], the Ka is 1.98e+09 M⁻¹, the dissociation rate constant (koff) came out at 0.00111 s⁻¹ and the kon was 2.2e+06 M⁻¹ s⁻¹.
